According to article PMC9826837:
Where two headings read alike, the source gives them in different places.

Tests used:
[1] = biological target: nonphosphorylated rat cardiac troponin complex (cTn-0P), Alexa647-labelled (rat) (UniProt Q4PP99); assay: MST
[2] = biological target: N-terminal lobe of cardiac troponin C (NcTnC), Alexa647-labelled; assay: MST
[3] = biological target: Ser22/23 bisphosphorylated rat cardiac troponin complex (cTn-2P), Alexa647-labelled (rat) (UniProt Q4PP99); assay: MST
[4] = biological target: nonphosphorylated rat cardiac troponin complex (cTn-0P), Alexa647-labelled (rat) (UniProt Q4PP99); assay: MST; remark: listed apart in the source
[5] = biological target: Ser22/23 bisphosphorylated rat cardiac troponin complex (cTn-2P), Alexa647-labelled (rat) (UniProt Q4PP99); assay: MST; remark: listed apart in the source
[6] = biological target: rat cardiac troponin T (cTnT) (rat) (UniProt P50753); assay: SEC-MALS

Row | Substance | Kd [1] | Kd [2] | Kd [3] | Kd [4] | Kd [5] | stoichiometry N [6]
1 | nonphosphorylated N-terminal fragment of rat cMyBP-C encompassing domains C0, C1, m-motif and C2 (cC0C2-0P) (domain or fragment) | 20 µM | 5 µM | 20 µM | 20 µM | 20 µM | 
2 | rat cardiac troponin C (cTnC) (from UniProt Q4PP99 1-161) (natural protein) |  |  |  |  |  | 1
